Data reported in publication doi:10.1101/791277, “Assembly of novel, nuclear dimers of the PI3-Kinase regulatory subunits underpins the pro-proliferative activity of the Cdc42-activated tyrosine kinase, ACK” (bioRxiv, 2019).
Where no end group is shown, it is not given here. [ ]: non-standard residue; d: D form. The star is where a group is joined. 5FAM = O=C1OC2(c3ccc(O)cc3Oc3cc(O)ccc32)c2ccc(C(=O)*)cc21; pY = N[C@@H](Cc1ccc(OP(=O)(O)O)cc1)C(=O)O

Columns and labels:
p85β cSH2 (603-712) = target: T1, p85β cSH2 (603-712) (mouse, UniProt O08908 603-712); assay: fluorescence polarisation; 5-FAM peptide at 20 nM (CD28, p85α, phospho-p85α) or 40 nM (p85β, phospho-p85β), SH2 domain titrated; 298 K; anisotropy fitted to a single site binding isotherm; settings: both partners purified
T1 construct: PI3-Kinase regulatory subunit p85β, C-terminal SH2 domain, residues 603-712; also called cSH2 domain of p85β; source: E. coli, purified (glutathione-agarose, HRV 3C cleavage, S75 size exclusion)
T1 sequence (looked up): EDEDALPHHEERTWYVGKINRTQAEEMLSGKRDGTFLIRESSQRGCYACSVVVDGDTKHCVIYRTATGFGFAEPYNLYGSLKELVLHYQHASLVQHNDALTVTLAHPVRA

p85α cSH2 (614-720) = target: T2, p85α cSH2 (614-720) (human, UniProt P27986 614-720); assay: as above; settings: both partners purified
T2 construct: PI3-Kinase regulatory subunit p85α, C-terminal SH2 domain, residues 614-720; also called cSH2 domain of p85α; source: E. coli, purified (glutathione-agarose, HRV 3C cleavage, S75 size exclusion)
T2 sequence (P27986 614-720): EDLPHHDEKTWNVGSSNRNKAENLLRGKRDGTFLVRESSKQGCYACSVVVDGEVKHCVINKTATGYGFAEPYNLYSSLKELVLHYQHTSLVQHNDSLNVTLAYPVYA

binding result (p85β cSH2 (603-712)): binds | binding result (p85α cSH2 (614-720)): binds
B1: CD28 peptide, [5-FAM]-SD-[pY]-MNMTP (peptide)
peptide: 5FAM-SD[pY]MNMTP
notes: known SH2 target phosphopeptide from CD28; also called control peptide from CD28; source: synthetic peptide, bought: Biomatik
